# Measured values from patent US20220143024A1, “METHODS OF USING IMIPRIDONES” (Board of Regents, The University of Texas System, priority 2019, published 2022).
# Experiments:
# [1] = target: ACSS1 (human) (UniProt Q9NUB1); experiment: BioID-MS +ONC201
# [2] = target: CRAT (human) (UniProt P43155); experiment: BioID-MS +ONC201
# [3] = target: DHRS4 (human) (UniProt Q9BTZ2); experiment: BioID-MS +ONC201
# [4] = target: IDE (human) (UniProt P14735); experiment: BioID-MS +ONC201
# [5] = target: LYRM7 (human) (UniProt Q5U5X0); experiment: BioID-MS +ONC201
# [6] = target: MRPL12 (human) (UniProt P52815); experiment: BioID-MS +ONC201
# [7] = target: MRPL14 (human) (UniProt Q6P1L8); experiment: BioID-MS +ONC201
# [8] = target: MRPS25 (human) (UniProt P82663); experiment: BioID-MS +ONC201
# [9] = target: MTRF1L (human) (UniProt Q9UGC7); experiment: BioID-MS +ONC201
# [10] = target: NDUFS8 (human) (UniProt O00217); experiment: BioID-MS +ONC201
# Sequence of NDUFS8 (human) (O00217 35-210 limits assumed): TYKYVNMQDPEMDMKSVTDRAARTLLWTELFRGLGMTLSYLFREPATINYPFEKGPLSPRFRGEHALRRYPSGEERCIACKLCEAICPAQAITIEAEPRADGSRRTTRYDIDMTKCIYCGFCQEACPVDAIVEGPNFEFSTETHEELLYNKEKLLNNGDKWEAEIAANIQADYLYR
# [11] = target: NUBPL (human) (UniProt Q8TB37); experiment: BioID-MS +ONC201
# Sequence of NUBPL (human) (Q8TB37 39-319 limits assumed): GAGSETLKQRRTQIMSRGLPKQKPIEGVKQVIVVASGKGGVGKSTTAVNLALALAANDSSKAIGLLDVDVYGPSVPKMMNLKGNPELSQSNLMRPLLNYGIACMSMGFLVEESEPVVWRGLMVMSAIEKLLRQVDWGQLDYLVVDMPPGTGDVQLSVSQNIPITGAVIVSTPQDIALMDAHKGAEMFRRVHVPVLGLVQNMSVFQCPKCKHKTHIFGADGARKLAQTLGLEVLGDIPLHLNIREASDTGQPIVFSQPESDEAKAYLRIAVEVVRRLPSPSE
# [12] = target: TST (human) (UniProt Q16762); experiment: BioID-MS +ONC201
# Sequence of TST (human) (Q16762 2-297 limits assumed): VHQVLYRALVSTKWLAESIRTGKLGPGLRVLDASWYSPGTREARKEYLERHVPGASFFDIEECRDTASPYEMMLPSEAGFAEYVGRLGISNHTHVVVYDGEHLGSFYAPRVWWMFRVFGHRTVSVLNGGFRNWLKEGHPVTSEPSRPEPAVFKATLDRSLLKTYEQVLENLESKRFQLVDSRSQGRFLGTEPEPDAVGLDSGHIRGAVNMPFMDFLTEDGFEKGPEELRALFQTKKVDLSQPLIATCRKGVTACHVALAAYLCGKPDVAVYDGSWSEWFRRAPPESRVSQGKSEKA
# [13] = target: ACAA2 (human) (UniProt P42765); experiment: BioID-MS
# Sequence of ACAA2 (human) (P42765 whole entry): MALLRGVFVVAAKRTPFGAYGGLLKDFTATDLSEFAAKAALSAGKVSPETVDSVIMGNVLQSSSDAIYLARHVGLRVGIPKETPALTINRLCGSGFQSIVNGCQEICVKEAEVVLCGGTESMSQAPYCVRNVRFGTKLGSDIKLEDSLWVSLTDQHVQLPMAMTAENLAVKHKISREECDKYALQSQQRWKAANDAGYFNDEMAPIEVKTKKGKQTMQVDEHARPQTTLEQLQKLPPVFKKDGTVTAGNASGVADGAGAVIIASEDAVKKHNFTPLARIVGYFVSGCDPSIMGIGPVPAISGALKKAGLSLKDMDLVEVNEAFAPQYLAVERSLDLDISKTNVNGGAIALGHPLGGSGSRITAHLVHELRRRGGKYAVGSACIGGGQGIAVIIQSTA
# [14] = target: ACADSB (human) (UniProt P45954); experiment: BioID-MS
# [15] = target: ALDH2 (human) (UniProt P05091); experiment: BioID-MS
# [16] = target: ATPAF2 (human) (UniProt Q8N5M1); experiment: BioID-MS
# Sequence of ATPAF2 (human) (Q8N5M1 41-289 limits assumed): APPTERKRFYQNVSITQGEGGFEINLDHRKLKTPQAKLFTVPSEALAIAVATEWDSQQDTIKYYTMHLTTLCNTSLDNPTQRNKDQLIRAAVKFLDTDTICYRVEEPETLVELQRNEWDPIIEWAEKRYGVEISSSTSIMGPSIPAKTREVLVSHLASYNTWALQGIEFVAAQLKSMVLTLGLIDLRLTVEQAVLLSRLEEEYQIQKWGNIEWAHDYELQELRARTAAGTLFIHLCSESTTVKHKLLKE
# [17] = target: BCKDHA (human) (UniProt P12694); experiment: BioID-MS
# [18] = target: BCS1L (human) (UniProt Q9Y276); experiment: BioID-MS
# [19] = target: C2orf56 (human) (UniProt Q7L592); experiment: BioID-MS
# [20] = target: C7orf55 (human) (UniProt Q96HJ9); experiment: BioID-MS
# [21] = target: C8orf82 (human) (UniProt Q6P1X6); experiment: BioID-MS
# [22] = target: DHRS4 (human) (UniProt Q9BTZ2); experiment: BioID-MS
# [23] = target: ECSIT (human) (UniProt Q9BQ95); experiment: BioID-MS
# Sequence of ECSIT (human) (Q9BQ95 49-431 limits assumed): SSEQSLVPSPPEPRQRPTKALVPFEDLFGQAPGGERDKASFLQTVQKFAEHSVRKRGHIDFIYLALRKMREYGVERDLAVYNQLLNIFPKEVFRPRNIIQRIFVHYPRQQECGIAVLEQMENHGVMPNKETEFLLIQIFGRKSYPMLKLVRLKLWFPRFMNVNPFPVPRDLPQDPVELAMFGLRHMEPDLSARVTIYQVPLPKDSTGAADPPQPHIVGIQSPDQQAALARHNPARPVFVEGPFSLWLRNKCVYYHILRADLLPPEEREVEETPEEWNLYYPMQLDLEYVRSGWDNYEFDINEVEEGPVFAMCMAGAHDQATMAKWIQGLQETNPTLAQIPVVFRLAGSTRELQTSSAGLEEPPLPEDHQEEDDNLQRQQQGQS
# [24] = target: FMC1 (human) (UniProt Q96HJ9); experiment: BioID-MS
# [25] = target: GFM1 (human) (UniProt Q96RP9); experiment: BioID-MS
# Sequence of GFM1 (human) (Q96RP9 37-751 limits assumed): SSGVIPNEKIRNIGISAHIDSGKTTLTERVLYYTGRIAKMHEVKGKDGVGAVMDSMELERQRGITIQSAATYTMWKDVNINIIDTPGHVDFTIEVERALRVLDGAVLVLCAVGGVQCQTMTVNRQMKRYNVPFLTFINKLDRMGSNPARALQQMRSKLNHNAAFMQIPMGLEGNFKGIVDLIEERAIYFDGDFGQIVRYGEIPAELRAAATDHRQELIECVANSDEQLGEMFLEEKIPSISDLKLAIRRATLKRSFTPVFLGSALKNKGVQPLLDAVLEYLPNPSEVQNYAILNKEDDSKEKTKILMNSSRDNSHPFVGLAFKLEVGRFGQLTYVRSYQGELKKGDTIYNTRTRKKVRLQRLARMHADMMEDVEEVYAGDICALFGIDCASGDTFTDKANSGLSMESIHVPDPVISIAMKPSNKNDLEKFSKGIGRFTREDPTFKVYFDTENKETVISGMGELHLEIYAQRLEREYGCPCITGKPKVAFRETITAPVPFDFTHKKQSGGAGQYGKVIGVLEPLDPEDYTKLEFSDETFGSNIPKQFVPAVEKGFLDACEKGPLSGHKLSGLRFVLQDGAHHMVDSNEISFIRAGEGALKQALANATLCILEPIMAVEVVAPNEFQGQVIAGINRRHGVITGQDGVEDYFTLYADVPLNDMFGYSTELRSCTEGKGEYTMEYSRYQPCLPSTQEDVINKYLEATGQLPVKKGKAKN
# [26] = target: GLS (human) (UniProt O94925); experiment: BioID-MS
# [27] = target: GPT2 (human) (UniProt Q8TD30); experiment: BioID-MS
# [28] = target: GRPEL1 (human) (UniProt Q9HAV7); experiment: BioID-MS
# [29] = target: HINT2 (human) (UniProt Q9BX68); experiment: BioID-MS
# Sequence of HINT2 (human) (Q9BX68 18-163 limits assumed): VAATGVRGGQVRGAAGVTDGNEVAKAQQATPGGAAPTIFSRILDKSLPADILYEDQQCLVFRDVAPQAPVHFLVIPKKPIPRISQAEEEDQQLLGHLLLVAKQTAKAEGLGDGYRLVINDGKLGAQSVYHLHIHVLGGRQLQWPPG
# [30] = target: HSD17B10 (human) (UniProt Q99714); experiment: BioID-MS
# [31] = target: MARS2 (human) (UniProt Q96GW9); experiment: BioID-MS
# [32] = target: MGME1 (human) (UniProt Q9BQP7); experiment: BioID-MS
# Sequence of MGME1 (human) (Q9BQP7 whole entry): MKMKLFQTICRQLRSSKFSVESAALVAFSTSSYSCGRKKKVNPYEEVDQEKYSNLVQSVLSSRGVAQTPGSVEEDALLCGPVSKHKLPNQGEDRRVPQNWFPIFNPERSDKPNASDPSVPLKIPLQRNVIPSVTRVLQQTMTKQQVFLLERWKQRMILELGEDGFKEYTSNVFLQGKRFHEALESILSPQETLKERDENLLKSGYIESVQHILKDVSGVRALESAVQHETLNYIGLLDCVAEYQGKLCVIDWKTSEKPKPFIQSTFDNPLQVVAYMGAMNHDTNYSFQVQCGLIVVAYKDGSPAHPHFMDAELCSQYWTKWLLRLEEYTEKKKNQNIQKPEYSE
# [33] = target: MRM3 (human) (UniProt Q9HC36); experiment: BioID-MS
# Sequence of MRM3 (human) (Q9HC36 41-420 limits assumed): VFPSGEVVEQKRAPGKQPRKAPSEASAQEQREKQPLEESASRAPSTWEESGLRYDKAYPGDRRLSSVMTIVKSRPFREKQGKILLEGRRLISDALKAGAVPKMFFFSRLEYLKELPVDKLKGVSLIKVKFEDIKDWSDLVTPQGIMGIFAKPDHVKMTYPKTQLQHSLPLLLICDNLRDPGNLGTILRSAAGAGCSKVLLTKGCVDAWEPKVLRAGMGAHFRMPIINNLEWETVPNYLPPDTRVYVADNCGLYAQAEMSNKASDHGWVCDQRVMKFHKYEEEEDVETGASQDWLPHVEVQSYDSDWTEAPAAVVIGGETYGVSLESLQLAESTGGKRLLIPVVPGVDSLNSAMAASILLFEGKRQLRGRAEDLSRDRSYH
# [34] = target: MRPL14 (human) (UniProt Q6P1L8); experiment: BioID-MS
# [35] = target: MRPL19 (human) (UniProt P49406); experiment: BioID-MS
# [36] = target: MRPL47 (human) (UniProt Q9HD33); experiment: BioID-MS
# [37] = target: MRPS15 (human) (UniProt P82914); experiment: BioID-MS
# [38] = target: MRPS24 (human) (UniProt Q96EL2); experiment: BioID-MS
# [39] = target: MRPS26 (human) (UniProt Q9BYN8); experiment: BioID-MS
# [40] = target: MTIF2 (human) (UniProt P46199); experiment: BioID-MS
# [41] = target: NDUFS8 (human) (UniProt O00217); experiment: BioID-MS
# [42] = target: NDUFV3 (human) (UniProt P56181); experiment: BioID-MS
# [43] = target: NUBPL (human) (UniProt Q8TB37); experiment: BioID-MS
# [44] = target: PAM16 (human) (UniProt Q9Y3D7); experiment: BioID-MS
# [45] = target: PMPCA (human) (UniProt Q10713); experiment: BioID-MS
# Sequence of PMPCA (human) (Q10713 34-525 limits assumed): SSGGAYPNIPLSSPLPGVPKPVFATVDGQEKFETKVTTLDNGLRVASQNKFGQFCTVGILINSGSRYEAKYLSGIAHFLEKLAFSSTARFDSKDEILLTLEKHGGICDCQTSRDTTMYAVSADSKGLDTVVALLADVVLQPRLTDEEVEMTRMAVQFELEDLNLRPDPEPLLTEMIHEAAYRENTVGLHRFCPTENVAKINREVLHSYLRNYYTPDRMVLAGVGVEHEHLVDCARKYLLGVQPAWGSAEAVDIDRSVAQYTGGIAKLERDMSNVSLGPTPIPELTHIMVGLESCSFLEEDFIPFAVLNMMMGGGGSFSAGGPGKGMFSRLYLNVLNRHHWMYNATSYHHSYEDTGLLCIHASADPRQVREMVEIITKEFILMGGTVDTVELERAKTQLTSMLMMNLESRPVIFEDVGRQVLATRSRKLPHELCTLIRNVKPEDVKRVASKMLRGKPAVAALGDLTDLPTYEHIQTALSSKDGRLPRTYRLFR
# [46] = target: PYCR1 (human) (UniProt P32322); experiment: BioID-MS
# [47] = target: PYCR2 (human) (UniProt Q96C36); experiment: BioID-MS
# Sequence of PYCR2 (human) (Q96C36 2-320 limits assumed): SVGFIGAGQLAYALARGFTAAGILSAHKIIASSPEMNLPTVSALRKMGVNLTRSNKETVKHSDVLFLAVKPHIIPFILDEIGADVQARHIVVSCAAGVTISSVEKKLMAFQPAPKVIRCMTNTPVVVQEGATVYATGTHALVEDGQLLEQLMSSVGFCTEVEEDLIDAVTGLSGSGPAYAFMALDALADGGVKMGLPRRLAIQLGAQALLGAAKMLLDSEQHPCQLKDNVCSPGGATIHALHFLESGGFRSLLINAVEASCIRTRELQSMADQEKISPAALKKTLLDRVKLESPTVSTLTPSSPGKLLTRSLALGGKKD
# [48] = target: RNMTL1 (human) (UniProt Q9HC36); experiment: BioID-MS
# Sequence of RNMTL1 (human) (Q9HC36 41-420 limits assumed): as the sequence (Q9HC36 41-420 limits assumed) above
# [49] = target: RTN4IP1 (human) (UniProt Q8WWV3); experiment: BioID-MS
# [50] = target: SDHAF3 (human) (UniProt Q9NRP4); experiment: BioID-MS
# [51] = target: SLC27A2 (human) (UniProt O14975); experiment: BioID-MS
# [52] = target: THEM4 (human) (UniProt Q5T1C6); experiment: BioID-MS
# [53] = target: TST (human) (UniProt Q16762); experiment: BioID-MS
# [54] = target: VWA8 (human) (UniProt A3KMH1); experiment: BioID-MS
# [55] = target: WARS2 (human) (UniProt Q9UGM6); experiment: BioID-MS
# [56] = target: ZADH2 (human) (UniProt Q8N4Q0); experiment: BioID-MS
# Sequence of ZADH2 (human) (Q8N4Q0 whole entry): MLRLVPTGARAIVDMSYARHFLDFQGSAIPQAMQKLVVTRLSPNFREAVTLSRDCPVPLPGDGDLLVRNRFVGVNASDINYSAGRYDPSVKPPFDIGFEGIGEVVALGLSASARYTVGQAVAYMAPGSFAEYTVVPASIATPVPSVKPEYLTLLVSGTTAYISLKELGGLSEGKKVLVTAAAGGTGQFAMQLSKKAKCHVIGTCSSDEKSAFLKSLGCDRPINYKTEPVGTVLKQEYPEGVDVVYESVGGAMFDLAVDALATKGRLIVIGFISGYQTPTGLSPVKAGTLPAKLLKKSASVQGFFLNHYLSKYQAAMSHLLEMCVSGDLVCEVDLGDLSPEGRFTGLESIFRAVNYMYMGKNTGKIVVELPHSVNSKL
# Sequence of DHRS4 (human) (Q9BTZ2 whole entry): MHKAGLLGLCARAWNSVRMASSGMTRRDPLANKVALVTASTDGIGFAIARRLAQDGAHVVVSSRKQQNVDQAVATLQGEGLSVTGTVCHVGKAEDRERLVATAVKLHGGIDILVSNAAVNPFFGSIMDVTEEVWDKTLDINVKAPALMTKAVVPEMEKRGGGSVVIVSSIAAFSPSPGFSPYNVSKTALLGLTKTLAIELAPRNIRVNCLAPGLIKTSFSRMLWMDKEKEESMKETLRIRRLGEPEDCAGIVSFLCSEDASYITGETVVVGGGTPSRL
substance,measurement,setting,value
FlagBirA-ClpP (WT) (from UniProt P06709 1-321; Q16740 57-277) (enzyme),Log2 Fold change (vs control),[1],-4.46 log2
same,Log2 Fold change (vs control),[2],-4 log2
same,Log2 Fold change (vs control),[3],-2.32 log2
same,Log2 Fold change (vs control),[4],-1.97 log2
same,Log2 Fold change (vs control),[5],-1.38 log2
same,Log2 Fold change (vs control),[6],-3.32 log2
same,Log2 Fold change (vs control),[7],-3.46 log2
same,Log2 Fold change (vs control),[8],-3.91 log2
same,Log2 Fold change (vs control),[9],-3.81 log2
same,Log2 Fold change (vs control),[10],-2.73 log2
same,Log2 Fold change (vs control),[11],-4.17 log2
same,Log2 Fold change (vs control),[12],-5.55 log2
FlagBirA-ClpP (Y118A) (from UniProt P06709 1-321; Q16740 57-277) (enzyme),Log2 Fold change (vs control),[13],-0.92 log2
same,Log2 Fold change (vs control),[14],-0.2 log2
same,Log2 Fold change (vs control),[15],-0.18 log2
same,Log2 Fold change (vs control),[16],-0.91 log2
same,Log2 Fold change (vs control),[17],1.68 log2
same,Log2 Fold change (vs control),[18],0.47 log2
same,Log2 Fold change (vs control),[19],0.19 log2
same,Log2 Fold change (vs control),[20],-0.74 log2
same,Log2 Fold change (vs control),[21],1.6 log2
same,Log2 Fold change (vs control),[22],0.14 log2
same,Log2 Fold change (vs control),[23],-1.04 log2
same,Log2 Fold change (vs control),[24],0.41 log2
same,Log2 Fold change (vs control),[25],-0.26 log2
same,Log2 Fold change (vs control),[26],0.21 log2
same,Log2 Fold change (vs control),[27],0.21 log2
same,Log2 Fold change (vs control),[28],0 log2
same,Log2 Fold change (vs control),[29],0.09 log2
same,Log2 Fold change (vs control),[30],0.72 log2
same,Log2 Fold change (vs control),[31],0.23 log2
same,Log2 Fold change (vs control),[32],0.44 log2
same,Log2 Fold change (vs control),[33],0.14 log2
same,Log2 Fold change (vs control),[34],0 log2
same,Log2 Fold change (vs control),[35],-0.97 log2
same,Log2 Fold change (vs control),[36],-1.94 log2
same,Log2 Fold change (vs control),[37],-2.32 log2
same,Log2 Fold change (vs control),[38],1.12 log2
same,Log2 Fold change (vs control),[39],-0.52 log2
same,Log2 Fold change (vs control),[40],0.3 log2
same,Log2 Fold change (vs control),[41],0.19 log2
same,Log2 Fold change (vs control),[42],0.05 log2
same,Log2 Fold change (vs control),[43],-2.58 log2
same,Log2 Fold change (vs control),[44],-0.42 log2
same,Log2 Fold change (vs control),[45],0.15 log2
same,Log2 Fold change (vs control),[46],1.08 log2
same,Log2 Fold change (vs control),[47],0.26 log2
same,Log2 Fold change (vs control),[48],-0.2 log2
same,Log2 Fold change (vs control),[49],-0.52 log2
same,Log2 Fold change (vs control),[50],-0.03 log2
same,Log2 Fold change (vs control),[51],-3.81 log2
same,Log2 Fold change (vs control),[52],-0.17 log2
same,Log2 Fold change (vs control),[53],-0.51 log2
same,Log2 Fold change (vs control),[54],1.02 log2
same,Log2 Fold change (vs control),[55],0.25 log2
same,Log2 Fold change (vs control),[56],-1.46 log2
